The labels stand for the following.
B1: Trs130 (natural protein, S. cerevisiae (endogenous in yeast), UniProt Q03660 1-1102, looked up)
chain: MDKEIYCGSVPVSYFDPFDLFESLRPEFQQILPLDNIHWKAFDGTVRTVNRLPIELIPEGRGEADKSNDEQPFIRFLIVNCISIDQYRAKVRPLVRQWLPNLESVSSSTGEKMIYKPIILLYANSEVVDSNLFKSVSLMEKFGKDFPHVQTLEVRSVYRSPKERQEFWNQFSQKIKASVLSIFQKRLTHLQHSLANLQKGNNFEEQLLTREKLYELYVVFNILEDASLELQKIKKEILRRNMNMPDGKLQVPFESSSKSDESLGSIIIEGTLDKFQLHKYFFIRRLRLLKLEDQTLTAFVGAFQLIKNFIESISIEYRKSVRLLEFKHYFITSMLSYFEFENVSNPLLCEIKAELLMLKRDNWVQGVMATSGYRLMDKNYPNSDVKYKFDLLKETFVDETVFQENFLTLTKEILSLFNKCEGKRQRIVDILSIEIGLLYYQGKKYEEAVSLFLSCYEYYTQTNWNSIGLKILQVFIDSLSHCPKLDVLQIDGESVSASAVLTNAFLNILKLCKDNDSKEIWWKKFMDLQMKNNIHLMYPLDGLFEVTLNSKVHLARANVSAIEVNLKSYGFPEDISTKTMRLSLKNMGGDVIVFGASDFLLKKGENKLILECRDIMYGEFSLLSFEIIVEGITFVKEFPENQDEFIVVPEIYCKESTKVLVKQAHNLNLGEYALELKSVQSDALESLQVEVEVQKNIGNMKNLPVSFSMDEIQARKRYNTPFENVRLEYYLLDQITAFDLIIKTSFTKKNDQGTFGETKKVRIQCYLQLSVSVEDIFKKDIFFFKFLLNSSVREEPVILYSSELSAPDTRNDYNIRGDYIATTPALITFDGNESFINCYEITANNNFDSKDIFNLKVRYNTLKEQLDCFITDAVLIEGDVEWFILFEKWKTFWELEILKKLKYDYDAFKENRIIRLLKTSIDLNKTKSKIRNLCIEKAVLDKILICLNKVSRGIAVCNTDMDEYVRNLVPKQLTVPVQLPGFEQFFHVQFEQMETSHDALHDTIATIGNSLSYTVIVENLSGQWGQDVIDDGGYIFEILSSNEWLIHGQKRCAIKEKRKEFEVHLIPLKKGYLNFPRVEITNINGKSCRVDHSNAFESILIF

Test [1] has as its target T1, Trs120 with a C-terminal TAP tag (Trs120-TAP) (S. cerevisiae (endogenous in yeast), UniProt Q04183 1-1289).
T1 sequence (looked up): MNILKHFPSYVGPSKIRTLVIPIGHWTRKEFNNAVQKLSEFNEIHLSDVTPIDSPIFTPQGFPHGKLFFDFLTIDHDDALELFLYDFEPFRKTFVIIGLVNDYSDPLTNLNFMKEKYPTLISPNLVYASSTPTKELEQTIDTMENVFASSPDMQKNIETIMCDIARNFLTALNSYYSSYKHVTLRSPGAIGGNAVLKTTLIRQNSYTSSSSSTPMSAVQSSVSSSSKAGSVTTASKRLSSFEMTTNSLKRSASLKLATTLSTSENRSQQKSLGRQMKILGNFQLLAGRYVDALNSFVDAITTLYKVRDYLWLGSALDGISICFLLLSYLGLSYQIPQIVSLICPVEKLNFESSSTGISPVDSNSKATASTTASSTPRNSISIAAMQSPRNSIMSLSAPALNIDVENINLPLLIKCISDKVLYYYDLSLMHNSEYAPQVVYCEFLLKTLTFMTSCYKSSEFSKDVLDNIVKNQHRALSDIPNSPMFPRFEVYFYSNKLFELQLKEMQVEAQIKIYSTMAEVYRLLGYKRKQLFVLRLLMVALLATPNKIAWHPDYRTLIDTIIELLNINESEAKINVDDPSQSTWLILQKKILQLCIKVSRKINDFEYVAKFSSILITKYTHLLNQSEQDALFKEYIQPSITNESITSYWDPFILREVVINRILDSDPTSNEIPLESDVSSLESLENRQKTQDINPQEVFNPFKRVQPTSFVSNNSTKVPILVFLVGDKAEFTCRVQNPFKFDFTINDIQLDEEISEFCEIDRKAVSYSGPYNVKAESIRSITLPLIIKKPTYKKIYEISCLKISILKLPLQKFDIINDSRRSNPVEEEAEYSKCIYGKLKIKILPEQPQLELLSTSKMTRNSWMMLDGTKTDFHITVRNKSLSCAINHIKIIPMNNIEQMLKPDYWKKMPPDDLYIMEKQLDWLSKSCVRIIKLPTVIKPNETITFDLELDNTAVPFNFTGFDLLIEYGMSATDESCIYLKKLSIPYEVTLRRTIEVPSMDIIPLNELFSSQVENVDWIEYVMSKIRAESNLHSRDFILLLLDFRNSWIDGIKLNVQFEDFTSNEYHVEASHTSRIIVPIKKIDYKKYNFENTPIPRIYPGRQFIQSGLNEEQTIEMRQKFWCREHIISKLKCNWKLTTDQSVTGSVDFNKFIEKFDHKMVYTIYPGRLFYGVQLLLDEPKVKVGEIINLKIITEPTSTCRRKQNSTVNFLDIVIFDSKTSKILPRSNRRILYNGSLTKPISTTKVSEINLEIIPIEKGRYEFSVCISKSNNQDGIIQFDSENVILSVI
As to the kind of experiment: single-particle EM.

Test [2] deals with B1. As to the kind of experiment: single-particle EM.

As for B1, in test [1], the binding result was “binds”.

B2: Trs20 (natural protein, S. cerevisiae (endogenous in yeast), UniProt P38334 1-175, looked up)
chain: MPQYFAIIGKKDNPVYEIEFTNAENPQGFPQDLKELNPFILHASLDIVEDLQWQINPTSQLNGNGGNGSNGGGGFLRSRAVNNTDNCYLGKVDHFYGLAITAYISYSGMKFVMIHGNSANSSVVIDDNNMRSFYQEVHELYVKTLMNPFYKITDPIRSPAFDSRVRTLARKHLSK
Take B2: the binding result in test [2] is “binds”.

B3: Trs33 (natural protein, S. cerevisiae (endogenous in yeast), UniProt Q99394 1-268, looked up)
chain: MSSTHSNNVGHPQSSPQGPLTEQQRAQQQYQIFENSLPKVSQSVYQMLLNEMVPLAMGIERQISGDVISSDSNVTSENGNINNMIKRLKIEEHHTVDIIRSHNLIHELYKADEEEKEKVLARLRNIGFQIGLKLSELLIFSNNPNLKFKEMDLLLIMKFICRDVWKQIFGKQIDNLKTNHRGTFYLLDYDYRPIQSFSLEEDAKNEELKMIEPFLEIPVGIIRGVLSSLGYSSEEVICLASFIDRPTDRPKTAFPKGVSFHVQVTMPQ
As to B3, the binding result in test [1] is listed as “binds”.

B4: Bet3 (natural protein, S. cerevisiae (endogenous in yeast), UniProt P36149 1-193, looked up)
chain: MVSTTQSRSLKAMGEEIWKNKTEKINTELFTLTYGSIVAQLCQDYERDFNKVNDHLYSMGYNIGCRLIEDFLARTALPRCENLVKTSEVLSKCAFKIFLNITPNITNWSHNKDTFSLILDENPLADFVELPMDAMKSLWYSNILCGVLKGSLEMVQLDCDVWFVSDILRGDSQTEIKVKLNRILKDEIPIGED
With B4, the binding result in test [1] is reported as “binds”.

Values taken from article PMC2988884 (Nature structural & molecular biology, 2010).
